{"source": "paper PMC7329908", "about": "“Glucocorticoid receptor complexes form cooperatively with the Hsp90 co-chaperones Pp5 and FKBPs” (Scientific Reports, 2020)", "settings_in_all_cases": "both partners purified", "key": {"human Hsp90β [1]": {"target": "T1, human Hsp90β (human, UniProt P08238 1-724)", "T1 construct": "Hsp90β, human; source: E. coli BL21 (DE3), purified (HisTrap, Resource Q, Superdex size exclusion)", "T1 sequence (P08238 whole entry)": "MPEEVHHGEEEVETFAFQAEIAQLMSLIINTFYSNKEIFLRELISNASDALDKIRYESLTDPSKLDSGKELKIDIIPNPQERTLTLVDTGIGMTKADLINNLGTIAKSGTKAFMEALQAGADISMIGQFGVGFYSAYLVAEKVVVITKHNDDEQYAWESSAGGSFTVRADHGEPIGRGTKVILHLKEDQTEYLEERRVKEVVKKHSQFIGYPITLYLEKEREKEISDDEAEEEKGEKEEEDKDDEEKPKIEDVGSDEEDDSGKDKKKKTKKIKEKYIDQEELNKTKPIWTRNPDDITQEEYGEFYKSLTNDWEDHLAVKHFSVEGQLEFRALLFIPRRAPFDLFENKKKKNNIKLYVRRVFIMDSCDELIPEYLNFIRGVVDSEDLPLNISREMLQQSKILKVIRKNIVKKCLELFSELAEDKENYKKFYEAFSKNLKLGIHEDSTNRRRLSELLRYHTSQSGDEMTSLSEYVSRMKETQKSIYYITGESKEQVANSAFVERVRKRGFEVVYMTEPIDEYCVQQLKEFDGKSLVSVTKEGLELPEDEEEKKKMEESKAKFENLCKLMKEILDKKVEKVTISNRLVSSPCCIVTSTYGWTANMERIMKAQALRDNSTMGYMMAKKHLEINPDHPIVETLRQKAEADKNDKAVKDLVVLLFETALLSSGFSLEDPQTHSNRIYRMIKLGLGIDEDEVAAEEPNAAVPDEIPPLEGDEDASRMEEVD", "assay": "AUC; sedimentation velocity with fluorescence detection; 600 nM ATTO 488-labelled GRLBDm, 3 μM unlabelled chaperones and cofactors, no nucleotide; 20 mM HEPES, 20 mM KCl, 5 mM MgCl2, 50 μM dexamethasone, pH 7.5; 42,000 rpm, 20 °C"}, "human Hsp90β [2]": {"target": "T1, human Hsp90β", "assay": "AUC; sedimentation velocity with fluorescence detection; 600 nM ATTO 488-labelled GRLBDm, 3 μM unlabelled chaperones and cofactors, 2 mM ATPγS; 20 mM HEPES, 20 mM KCl, 5 mM MgCl2, 50 μM dexamethasone, pH 7.5; 42,000 rpm, 20 °C"}, "[3]": {"target": "T2, C. elegans Hsp90 (HSP-90) (C. elegans, UniProt Q18688 1-702)", "T2 construct": "HSP-90 (Hsp90 homolog), C. elegans; also called nematode HSP-90; nematode Hsp90; source: E. coli BL21 (DE3), purified (HisTrap, Resource Q, Superdex size exclusion)", "assay": "AUC; sedimentation velocity with fluorescence detection; 600 nM ATTO 488-labelled GRLBDm, 3 μM unlabelled chaperones and cofactors, 2 mM ATPγS; 20 mM HEPES, 20 mM KCl, 5 mM MgCl2, 50 μM dexamethasone, pH 7.5; 42,000 rpm, 20 °C"}, "[4]": {"target": "T2, C. elegans Hsp90 (HSP-90)", "assay": "AUC; sedimentation velocity with fluorescence detection; 600 nM ATTO 488-labelled GRLBDm, 3 μM unlabelled chaperones and cofactors, no nucleotide; 20 mM HEPES, 20 mM KCl, 5 mM MgCl2, 50 μM dexamethasone, pH 7.5; 42,000 rpm, 20 °C"}}}
{"binder": "human Fkbp51 (enzyme, UniProt Q13451 1-457, looked up, Fkbp51, human PPIase; source: E. coli BL21 (DE3), purified (HisTrap, Resource Q, Superdex size exclusion)) MTTDEGAKNNEESPTATVAEQGEDITSKKDRGVLKIVKRVGNGEETPMIGDKVYVHYKGKLSNGKKFDSSHDRNEPFVFSLGKGQVIKAWDIGVATMKKGEICHLLCKPEYAYGSAGSLPKIPSNATLFFEIELLDFKGEDLFEDGGIIRRTKRKGEGYSNPNEGATVEIHLEGRCGGRMFDCRDVAFTVGEGEDHDIPIGIDKALEKMQREEQCILYLGPRYGFGEAGKPKFGIEPNAELIYEVTLKSFEKAKESWEMDTKEKLEQAAIVKEKGTVYFKGGKYMQAVIQYGKIVSWLEMEYGLSEKESKASESFLLAAFLNLAMCYLKLREYTKAVECCDKALGLDSANEKGLYRRGEAQLLMNEFESAKGDFEKVLEVNPQNKAARLQISMCQKKAKEHNERDRRIYANMFKKFAEQDAKEEANKAMGKKTSEGVTNEKGTDSQAMEEEKPEGHV", "values": [{"measurement": "binding result", "setting": "human Hsp90β [1]", "value": "binds"}]}
{"binder": "human protein phosphatase Pp5 (enzyme, UniProt P53041 1-499, looked up, Pp5 (serine/threonine protein phosphatase 5), human; source: E. coli BL21 (DE3), purified (HisTrap, Resource Q, Superdex size exclusion)) MAMAEGERTECAEPPRDEPPADGALKRAEELKTQANDYFKAKDYENAIKFYSQAIELNPSNAIYYGNRSLAYLRTECYGYALGDATRAIELDKKYIKGYYRRAASNMALGKFRAALRDYETVVKVKPHDKDAKMKYQECNKIVKQKAFERAIAGDEHKRSVVDSLDIESMTIEDEYSGPKLEDGKVTISFMKELMQWYKDQKKLHRKCAYQILVQVKEVLSKLSTLVETTLKETEKITVCGDTHGQFYDLLNIFELNGLPSETNPYIFNGDFVDRGSFSVEVILTLFGFKLLYPDHFHLLRGNHETDNMNQIYGFEGEVKAKYTAQMYELFSEVFEWLPLAQCINGKVLIMHGGLFSEDGVTLDDIRKIERNRQPPDSGPMCDLLWSDPQPQNGRSISKRGVSCQFGPDVTKAFLEENNLDYIIRSHEVKAEGYEVAHGGRCVTVFSAPNYCDQMGNKASYIHLQGSDLRPQFHQFTAVPHPNVKPMAYANTLLQLGMM", "values": [{"measurement": "binding result", "setting": "human Hsp90β [1]", "value": "binds"}]}
{"binder": "human p23 (natural protein, UniProt Q15185 1-160, looked up, p23 co-chaperone, human; source: E. coli BL21 (DE3), purified (HisTrap, Resource Q, Superdex size exclusion)) MQPASAKWYDRRDYVFIEFCVEDSKDVNVNFEKSKLTFSCLGGSDNFKHLNEIDLFHCIDPNDSKHKRTDRSILCCLRKGESGQSWPRLTKERAKLNWLSVDFNNWKDWEDDSDEDMSNFDRFSEMMNNMGGDEDVDLPEVDGADDDSQDSDDEKMPDLE", "values": [{"measurement": "binding result", "setting": "human Hsp90β [2]", "value": "binds"}]}
{"binder": "FKB-6, nematode large prolyl isomerase (FK1, FK2 and TPR domains) (enzyme, C. elegans, UniProt O45418 1-431, looked up, FKB-6, peptidyl prolyl isomerase with FK1, FK2 and C-terminal TPR region, C. elegans; source: E. coli BL21 (DE3), purified (HisTrap, Resource Q, Superdex size exclusion)) MSGEKIDITPKKDGGVLKLIKKEGQGVVKPTTGTTVKVHYVGTLENGTKFDSSRDRGDQFSFNLGRGNVIKGWDLGVATMTKGEVAEFTIRSDYGYGDAGSPPKIPGGATLIFEVELFEWSAEDISPDRDGTILRTIIVEGSKNSFPNDTSKVLAHCVGTYQGTEFYNREVNFHIGEGSEEGLPEGVERALRRFQLGEKSKIEIRGHKYTYGNSPPAGSNIPVNATLEFTIFLKEFEKVPATWEMTAEEKLDAAKQAKDRGTMYLQKGNLKLAYNKYKRAEEVLEYEKSTDPEKMAERETILNGAYLNLSLVCSKQNEQLECIKWCDKVLETKPGNVKALYRKATALLTMNEVRDAMKLFEKIVEVEPENKAAAQQIIVCRNTIREQNERDKKRFKNLFAKISTEEDKPTNTVEDEDEIVASTSGSSTSNA", "values": [{"measurement": "binding result", "setting": "[3]", "value": "binds"}]}
{"binder": "STI-1, nematode TPR cofactor of HSP-90 (homolog of human Hop) (natural protein, C. elegans, UniProt O16259 1-320, looked up, STI-1, C. elegans; source: E. coli BL21 (DE3), purified (HisTrap, Resource Q, Superdex size exclusion)) MTDAAIAEKDLGNAAYKQKDFEKAHVHYDKAIELDPSNITFYNNKAAVYFEEKKFAECVQFCEKAVEVGRETRADYKLIAKAMSRAGNAFQKQNDLSLAVQWFHRSLSEFRDPELVKKVKELEKQLKAAERLAYINPELAQEEKNKGNEYFKKGDYPTAMRHYNEAVKRDPENAILYSNRAACLTKLMEFQRALDDCDTCIRLDSKFIKGYIRKAACLVAMREWSKAQRAYEDALQVDPSNEEAREGVRNCLRSNDEDPEKAKERSLADPEVQEILRDPGMRMILEQMSNDPGAVREHLKNPEIFQKLMKLRDAGVIQMR", "values": [{"measurement": "binding result", "setting": "[4]", "value": "binds"}]}
{"binder": "PPH-5, nematode protein phosphatase, homolog of human Pp5 (enzyme, C. elegans, UniProt Q9NES8 1-496, looked up, PPH-5, TPR-containing serine/threonine phosphatase, C. elegans; source: E. coli BL21 (DE3), purified (HisTrap, Resource Q, Superdex size exclusion)) MAATITDDIVATVLESIEEKSYEDEKEKAGMIKDEANQFFKDQVYDVAADLYSVAIEIHPTAVLYGNRAQAYLKKELYGSALEDADNAIAIDPSYVKGFYRRATANMALGRFKKALTDYQAVVKVCPNDKDARAKFDECSKIVRRQKFEAAISTDHDKKTVAETLDINAMAIEDSYDGPRLEDKITKEFVLQLIKTFKNQQKLHKKYAFKMLLEFYNYVKSLPTMVEITVPTGKKFTICGDVHGQFYDLCNIFEINGYPSETNPYLFNGDFVDRGSFSVETIFTMIGFKLLYPNHFFMSRGNHESDVMNKMYGFEGEVKAKYTQQMCDMFTETFCWLPLCHLINEKIFVCHGGLFKEDGVTLEDIRKTDRNRQPPDEGIMCDLLWSDPQPINGRSPSKRGVGCQFGPDVTSKWCETNGIEYVVRSHEVKPEGYEMHHNGQCFTVFSAPNYCDQMNNKGAFITITGDNLTPRFTPFDAVPHPKLPPMAYANSLFGFN", "values": [{"measurement": "binding result", "setting": "[3]", "value": "binds"}]}
{"binder": "human Fkbp52 (enzyme, UniProt Q02790 1-459, looked up, Fkbp52, human PPIase; source: E. coli BL21 (DE3), purified (HisTrap, Resource Q, Superdex size exclusion)) MTAEEMKATESGAQSAPLPMEGVDISPKQDEGVLKVIKREGTGTEMPMIGDRVFVHYTGWLLDGTKFDSSLDRKDKFSFDLGKGEVIKAWDIAIATMKVGEVCHITCKPEYAYGSAGSPPKIPPNATLVFEVELFEFKGEDLTEEEDGGIIRRIQTRGEGYAKPNEGAIVEVALEGYYKDKLFDQRELRFEIGEGENLDLPYGLERAIQRMEKGEHSIVYLKPSYAFGSVGKEKFQIPPNAELKYELHLKSFEKAKESWEMNSEEKLEQSTIVKERGTVYFKEGKYKQALLQYKKIVSWLEYESSFSNEEAQKAQALRLASHLNLAMCHLKLQAFSAAIESCNKALELDSNNEKGLFRRGEAHLAVNDFELARADFQKVLQLYPNNKAAKTQLAVCQQRIRRQLAREKKLYANMFERLAEEENKAKAEASSGDHPTDTEMKEEQKSNTAGSQSQVETEA", "values": [{"measurement": "binding result", "setting": "human Hsp90β [1]", "value": "binds"}]}
